± gives the standard deviation of the averaged measurements.
Test system: ATP
Assay: switch fluorescence ratio, 500 uM ATP over buffer (Cy3 cluster intensity, sum of 5 cycles each) (fold (ratio)); higher = stronger signal-on switching upon ATP binding; sequences stand for … in TCGTCGGCAGCGTCAGATGTGTATAAGAGACAGTTTTTTTTTTTTTTTTTTTTTTTTT…TC
Conditions: aptamer strand: ATP DNA aptamer (quencher-CACCTGGGGGAGTATTGCGGAGGAAGG + anchor), 100 nM annealed; ATP concentration: 500 uM
Procedure, shortened: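 Five buffer/ATP imaging cycles were run on Cy3-labelled switching-strand clusters on a modified Illumina MiSeq flow-cell, with NaOH stripping and re-annealing between cycles. In each cycle, clusters annealed to 100 nM quencher-labelled ATP aptamer were imaged in selection buffer, then after 15 min with 500 uM ATP at 22 °C. Per cluster, the fluorescence ratio is summed target-cycle over summed buffer-cycle Cy3 intensity, averaged per switch-domain sequence. Only clusters within 100-1000 RFU were kept.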
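Note: ATP exposure 15 min at 22 °C before imaging.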

| Sequence | switch fluorescence ratio |
| --- | --- |
| TAATTTGAGG | 0.955 ± 0.012 |
| TCAAGGGAAC | 0.9826 ± 0.004 |
| AAGAAGTGTT | 1.003 ± 0.0039 |
| GACTTCGTGG | 1.01 ± 0.056 |
| GGACTTTTTT | 1.03 ± 0.016 |
| CGTTTCATCT | 0.987 ± 0.065 |
| GGTGTGGCCG | 1.02 ± 0.062 |
| AGGGTAGATA | 1 ± 0.044 |
| ATGGAGGCGC | 0.981 ± 0.028 |
| TTGAAGGCAA | 1.59 ± 0.076 |
| AGTATGTTTC | 1 ± 0.025 |
| CGGGACGTTT | 1.01 ± 0.013 |
| CCGACCTGTA | 1.94 ± 0.22 |
| TGCACCATTT | 1.02 ± 0.014 |
| TAATTGTCTA | 1 ± 0.043 |
| TGCAGTCATG | 0.995 ± 0.03 |
| CTGGTTTCGA | 1.017 ± 0.0082 |
| TAAGGCCGGG | 0.9809 ± 0.0045 |
| TATGTTTCAG | 0.972 ± 0.038 |
| GCTTTTGCAC | 1.028 ± 0.0078 |
| TTTAAGAGTA | 1 ± 0.067 |
| TTCTTTTGTA | 1.06 ± 0.076 |
| TTGTATCAGG | 1 ± 0.02 |
| TTGTTGAATA | 1.003 ± 0.0016 |
| CGTGTGGCGA | 1.06 ± 0.015 |

| Sequence | switch fluorescence ratio |
| --- | --- |
| GCGTTTTGAG | 0.981 ± 0.025 |
| GTTAGTGATG | 0.9838 ± 0.003 |
| TCGAATATGT | 0.986 ± 0.025 |
| GAGCTAGGAA | 0.981 ± 0.058 |
| GTAGGGGTCA | 0.976 ± 0.054 |
| AGTTAATGTT | 1.01 ± 0.0026 |
| ATAGGAGGGT | 0.989 ± 0.014 |
| CGGTTTCTGG | 0.9856 ± 0.0053 |
| GTTTAACCGG | 1.01 ± 0.035 |
| AAGGTGTGTT | 1.08 ± 0.068 |
| GCTATGAAAG | 0.995 ± 0.013 |
| TTGGATACGG | 0.995 ± 0.031 |
| ATTCTGGAAT | 1.02 ± 0.06 |
| AGCCTTTCGT | 1.01 ± 0.054 |
| ACTACAGACG | 1.11 ± 0.061 |
| TGCCGGGAGT | 1.41 ± 0.61 |
| GATAAAGTAA | 0.983 ± 0.015 |
| ATTCTTCTTA | 1.028 ± 0.0033 |
| TCAGCCCCAT | 1.033 ± 0.0072 |
| AGGTTGGTGG | 1 ± 0.016 |
| TAGGGCATCG | 1.01 ± 0.03 |
| GGATGCTTGT | 1.009 ± 0.0092 |
| TCTGACGTA | 1.04 ± 0.0091 |
| AGTTATTAGG | 1.02 ± 0.032 |
| GTGAGTGGCA | 0.986 ± 0.029 |

| Sequence | switch fluorescence ratio |
| --- | --- |
| GGTGGGGAGA | 1.017 ± 0.0086 |
| GCGTTTTTCA | 0.9801 ± 0.0094 |
| GTTACCTTTT | 1.04 ± 0.023 |
| TGTTACGATA | 1.1181 ± 0.00041 |
| GCTAGTGTGG | 1.03 ± 0.015 |
| AATATGAG | 1.02 ± 0.018 |
| AGCATTGGCT | 1.016 ± 0.0011 |
| TATAGGCGCG | 1.03 ± 0.072 |
| TGGCTCAGTC | 0.997 ± 0.044 |
| CCGCTCGATG | 1.37 ± 0.023 |
| AGTAACAGCC | 1.001 ± 0.0066 |
| TTCGCAGTCA | 1.03 ± 0.052 |
| CGACGGGGCT | 1.13 ± 0.049 |
| AGGGATGAGA | 0.9965 ± 0.0024 |
| AAGCCGCTAG | 1.11 ± 0.026 |
| CGTTTTTACT | 0.99 ± 0.052 |
| TAGTGCCTGT | 0.995 ± 0.028 |
| GGGAAGGGGG | 1 ± 0.034 |
| CATGGGATGC | 1.08 ± 0.1 |
| CTAATTGAAC | 1.009 ± 0.0032 |
| TTCCCATTTT | 0.995 ± 0.013 |
| TTTGGCCGCT | 0.985 ± 0.011 |
| AGGAGTATGG | 1.02 ± 0.015 |
| TAACATCTTC | 1.01 ± 0.079 |
| ATATAGGTTG | 0.974 ± 0.051 |

| Sequence | switch fluorescence ratio |
| --- | --- |
| GCAATTCAGA | 1.064 ± 0.0099 |
| ATCGGATGTA | 1.016 ± 0.0084 |
| ATCGCTGGGA | 0.972 ± 0.02 |
| TAGGTTTAAT | 0.992 ± 0.036 |
| GCTTGAGTAC | 0.992 ± 0.037 |
| TTATTAGATT | 1.01 ± 0.005 |
| GGATATTCCA | 1.01 ± 0.067 |
| TTCGGTTTTC | 0.984 ± 0.033 |
| AGCGCATTGT | 1.02 ± 0.031 |
| TCACATTAAC | 1.04 ± 0.066 |
| TGAAGGCTTT | 1.01 ± 0.052 |
| TTTGACGTTT | 1.02 ± 0.059 |
| AACATTCCTT | 1.23 ± 0.08 |
| CTCCTGTGTT | 1.06 ± 0.0073 |
| CGGTCATTCA | 1.02 ± 0.055 |
| GTGTGAATGT | 1.01 ± 0.021 |
| GGTGCGATTG | 1.07 ± 0.052 |
| CCGAGATCGT | 1.02 ± 0.033 |
| GAGTGCAGGG | 0.994 ± 0.03 |
| AGTGAGCAGG | 1.11 ± 0.015 |
| TCAGGGTCTT | 1.01 ± 0.011 |
| TATTGTGAAA | 0.988 ± 0.012 |
| GGAGGGACTT | 1.39 ± 0.68 |
| TTCAGCGCGA | 1.14 ± 0.014 |
| TTTTGGGGTG | 1.05 ± 0.12 |

| Sequence | switch fluorescence ratio |
| --- | --- |
| CAAGTAGGTG | 1.03 ± 0.015 |
| GGTGGAGGGG | 1 ± 0.0022 |
| TGTTTGTTTG | 1 ± 0.036 |
| CCAGGTAAGT | 1.11 ± 0.11 |
| CCTACACTGG | 1.13 ± 0.048 |
| TGGTAGACGT | 0.968 ± 0.016 |
| GGCTGTTCGG | 0.988 ± 0.036 |
| TCGTTGGGTG | 0.994 ± 0.015 |
| AGCGGTTTCC | 1.029 ± 0.0093 |
| AGAGTGCTAC | 1.04 ± 0.027 |
| CCTGTGATTC | 1.23 ± 0.058 |
| ACGTTGGTAA | 1.02 ± 0.032 |
| CAGGGAGGGT | 0.983 ± 0.014 |
| AAATCTCTGA | 1.01 ± 0.025 |
| AAGCATAGGG | 1.02 ± 0.015 |
| GTGGGTTAGG | 0.996 ± 0.031 |
| CGTCCTCATG | 1.302 ± 0.0067 |
| GGAGTTTAGT | 1.008 ± 0.0016 |
| TATTTCCACT | 1.023 ± 0.01 |
| TGAGTTGGTT | 0.973 ± 0.026 |
| AGTGGTTCGC | 1.01 ± 0.024 |
| AATTTGATTC | 1.02 ± 0.058 |
| ATGGATCGAT | 0.967 ± 0.037 |
| TAAGGTTTGG | 0.9862 ± 0.0092 |
| TCGTGCTGGG | 1 ± 0.067 |

| Sequence | switch fluorescence ratio |
| --- | --- |
| TTTTAGGGTC | 1.11 ± 0.2 |
| TTGGTCTAGA | 1.01 ± 0.054 |
| GAGGGGCGGT | 1.02 ± 0.026 |
| GGTACGGGCC | 1.011 ± 0.01 |
| TGAATAAAGT | 0.978 ± 0.021 |
| TACGCGTAAT | 1.012 ± 0.0052 |
| GGGGGACTTC | 1.005 ± 0.01 |
| TAGGAAAGTG | 1.03 ± 0.054 |
| AAGAGTAAGC | 0.963 ± 0.013 |
| CGAATCGGTA | 0.969 ± 0.00014 |
| CAGATTATGT | 1.01 ± 0.055 |
| TTCCAAAAGG | 1.02 ± 0.054 |
| GTTTTCACAG | 0.992 ± 0.033 |
| GGGAGTAAAG | 0.989 ± 0.013 |
| TTATAATTAG | 0.994 ± 0.046 |
| TTTATGGTGG | 1.01 ± 0.013 |
| AGTTTGTTCT | 0.999 ± 0.01 |
| TAAAAAGAAA | 0.983 ± 0.043 |
| AGTGGGTTCA | 0.9842 ± 0.0034 |
| TCGAGTGGAG | 1.0319 ± 0.00064 |
| TTTTTAGAGG | 0.97 ± 0.041 |
| AAGTTCACGT | 0.996 ± 0.02 |
| CTCATGAAAC | 1.01 ± 0.046 |
| GTTTAGGGGC | 0.992 ± 0.023 |
| TTCGCAACAG | 2.19 ± 0.67 |

| Sequence | switch fluorescence ratio |
| --- | --- |
| ATAAGGATCT | 1.03 ± 0.016 |
| GATGACAGTG | 0.969 ± 0.083 |
| TTTGAAGGAC | 0.992 ± 0.044 |
| CGGATCGTCG | 0.984 ± 0.038 |
| TCGGCGAGGG | 0.977 ± 0.021 |
| TTCAAAATAG | 1.12 ± 0.15 |
| GCTAATAGCC | 1.059 ± 0.00084 |
| CGCATGGGGT | 1.0574 ± 1.7e-05 |
| CCGCTAAGGT | 1.39 ± 0.092 |
| TTTATCGGTG | 0.995 ± 0.035 |
| TATCATATCA | 0.956 ± 0.017 |
| TAGCGGGGGC | 1.02 ± 0.05 |
| GATTTGGGAC | 1.03 ± 0.05 |
| GTCGGGGGAT | 1.02 ± 0.014 |
| AAGGGGATCG | 1.03 ± 0.027 |
| TAAAAGGGGG | 0.999 ± 0.034 |
| CGGGGGTCTT | 1 ± 0.021 |
| CCTATGATTG | 0.981 ± 0.023 |
| GGGGACCATT | 1.01 ± 0.035 |
| TGCCTATGGA | 1 ± 0.014 |
| GGCATCGTAA | 1.01 ± 0.025 |
| CCAAGTGTAT | 1.02 ± 0.055 |
| GTGTAGAGTT | 1.02 ± 0.016 |
| CCATGAAAAT | 1.029 ± 0.003 |
| ATTAATGCGG | 1.07 ± 0.032 |

| Sequence | switch fluorescence ratio |
| --- | --- |
| TGCTTGAGGG | 1.004 ± 0.0097 |
| CGGGGTTGCT | 1.03 ± 0.054 |
| TTACGGGTGG | 1.01 ± 0.044 |
| CACTGATCCT | 1.032 ± 0.0032 |
| CGGTGCTACT | 1.03 ± 0.063 |
| TGGGGACAGC | 0.949 ± 0.027 |
| ATTTGGGCAT | 0.994 ± 0.029 |
| TTTATCGGGG | 0.988 ± 0.011 |
| TTTATGAATT | 1.03 ± 0.019 |
| TATATGGGGC | 1.03 ± 0.03 |
| CGTGGCAAAG | 1.02 ± 0.015 |
| ATAAGGAGTG | 0.996 ± 0.021 |
| TACTGCGGTC | 0.998 ± 0.012 |
| TGATGAGTCT | 1.03 ± 0.062 |
| GGTGTACCGG | 1.004 ± 0.0092 |
| TTTAAAGGCA | 0.991 ± 0.011 |
| CAAAGGTTGG | 1 ± 0.038 |
| AAAAGAGGGA | 0.999 ± 0.043 |
| AGGGGTGTCC | 1.01 ± 0.029 |
| GGGTCACGTT | 0.997 ± 0.032 |
| TTTATTTGCT | 0.9809 ± 0.0098 |
| GGGATTTTGC | 0.952 ± 0.015 |
| TTTTATGAGA | 0.978 ± 0.031 |
| ATTGGATATT | 1.02 ± 0.015 |
| TCGGGGTCTG | 0.9872 ± 0.0066 |
